Holding throughout (assay): PBM
Series [1] relates to HOXD13 I322L (human). The note with it: Universal PBM, 200 nM protein in PBS, temperature and pH not stated in the material.
Series [2] has as its system HOXD13 S316C (human). The note with it: contrastQ 0.9698003 (no significant change); Universal PBM, 200 nM protein in PBS; temperature and pH not stated in the material.
In series [3] the test system is HESX1 E149K (human). The note with it: contrastQ 9.83E-08; Universal PBM, 200 nM protein in PBS; temperature and pH not stated in the material.
Series [4] has as its system HESX1 N125S (human). The note with it: Universal PBM, 200 nM protein in PBS, temperature and pH not stated in the material.
Series [5] deals with HESX1 R109Q (human). The conditions noted are these: contrastQ 1.24E-92; Universal PBM, 200 nM protein in PBS; temperature and pH not stated in the material.
In series [6] the test system is HESX1 R160C (human). The note with it: contrastQ 1.53E-116; Universal PBM, 200 nM protein in PBS; temperature and pH not stated in the material.
Series [7] relates to PROP1 F88S (human). The note with it: contrastQ 3.19E-277; Universal PBM, 200 nM protein in PBS; temperature and pH not stated in the material.
The subject of series [8] is PROP1 R99Q (human). The conditions noted are these: contrastQ 2.52E-38; Universal PBM, 200 nM protein in PBS; temperature and pH not stated in the material.
For series [9], the system named is HOXD13 T313R (human). The note with it: contrastQ 1.85E-52; Universal PBM, 200 nM protein in PBS; temperature and pH not stated in the material.
The subject of series [10] is NKX2-5 K183E (human). The conditions noted are these: Universal PBM, 200 nM protein in PBS, temperature and pH not stated in the material.
In series [11] the test system is ARX L343Q (human). The note with it: contrastQ 3.05E-194; Universal PBM, 200 nM protein in PBS; temperature and pH not stated in the material.
In series [12] the test system is ARX P353R (human). The conditions noted are these: Universal PBM, 200 nM protein in PBS; temperature and pH not stated in the material.
Series [13] deals with ARX T333N (human). The note with it: contrastQ 5.30E-28; Universal PBM, 200 nM protein in PBS; temperature and pH not stated in the material.
Series [14] has as its system SHOX R173C (human). The conditions noted are these: contrastQ 1.38E-15; Universal PBM, 200 nM protein in PBS; temperature and pH not stated in the material.

With PBM 8-mer TCGTAAAA, the binding signal (contrast difference vs reference) in series [1] (contrastQ 3.41E-01 (no significant change)) was 0.259; in [2], 0.128.
In the case of PBM 8-mer CTAATTGA, the binding signal (contrast difference vs reference) in series [3] was -0.502; in series [4] (contrastQ 0.9069244 (no significant change)), -0.172; in series [5] it was -3.4; in series [6], -2.1; in [7], -4.12; in series [8] it was -0.687.
In the case of PBM 8-mer CAATAAAA, the binding signal (contrast difference vs reference) in series [9] was -1.23.
PBM 8-mer GCACTTCA: the binding signal (contrast difference vs reference) in series [10] (contrastQ 5.13E-38) is -1.27.
In the case of PBM 8-mer GCACTTGA, in [10] (contrastQ 1.87E-56), the binding signal (contrast difference vs reference) is -1.44.
On to PBM 8-mer GTTAATTA, for which the binding signal (contrast difference vs reference) in series [11] is -2.29; in series [12], -2.42; in series [13], -0.803.
As for PBM 8-mer ATTATAAT, in series [14], the binding signal (contrast difference vs reference) was -1.91.
Regarding PBM 8-mer CAATTAAA, the binding signal (contrast difference vs reference) in [4] (contrastQ 0.7783541 (no significant change)) was -0.277.
Turning to PBM 8-mer TCATAAAA, the values for the binding signal (contrast difference vs reference) in series [1] (contrastQ 8.96E-16) and in series [2] were -1.15 and 0.133, respectively.

The values are drawn from PMC11006913.
